Source: patent publication US20100278865A1

Molecular target: E2 protein of J6/JFH-1 (3×FLAG) virus particles (hepatitis C virus, J6CF strain (genotype 2a))
Experiment: batch capture of virus particles on M2 antibody agarose, FLAG peptide elution, HCV Core ELISA of eluates

## anti-FLAG monoclonal antibody (M2 antibody, Sigma)
  purification efficiency: 5%
